The labels stand for the following.
B1: ANKRD40 (parent)
chain: VCCCELGVNPDQVEKIRKLPNTLL
B2: SNX8 (parent)
chain: RMVPALPPKRMLGADREFIEARRR
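Also: lentivirally expressed fusions sorted by FACS into six bins by GFP to DsRed ratio, PSI derived from sequencing read proportions per bin multiplied by bin number.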

The variants in one data set derive from B1. The data set is described as follows: protein stability index of a GFP-peptide fusion (GPS, HEK-293T) (PSI 1-6); higher = more stable. As to conditions: c terminus: a fixed tail appended.
On to VCCCELEVNPDQVEKIRKLPNTLL, for which the protein stability index was 2.13.

As for VCCCELMVNPDQVEKIRKLPNTLL, the protein stability index worked out at 1.7.

With VCCCELWVNPDQVEKIRKLPNTLL, the protein stability index is 1.51.

With WCCCELGVNPDQVEKIRKLPNTLL, the protein stability index came out at 1.79.

Regarding YCCCELGVNPDQVEKIRKLPNTLL, the protein stability index was 1.85.

Turning to SCCCELGVNPDQVEKIRKLPNTLL, the protein stability index came out at 2.4.

Turning to ICCCELGVNPDQVEKIRKLPNTLL, the protein stability index amounted to 1.2.

Take VCCCELGVNPDQVWKIRKLPNTLL: the protein stability index is 2.21.

In the case of VCCCELGVNPDQVTKIRKLPNTLL, the protein stability index worked out at 1.68.

VCCCELGVNPEQVEKIRKLPNTLL: the protein stability index came out at 2.18.

Regarding VCCCELGVNPCQVEKIRKLPNTLL, the protein stability index is 2.01.

As for VCCCELGDNPDQVEKIRKLPNTLL, the protein stability index worked out at 2.37.

Turning to VCCCELGVNPDQVEKIRKLNNTLL, the protein stability index was 2.3.

As for VCCCELGVNPDQVEKIRKLYNTLL, the protein stability index is 2.23.

For the variant VCRCELGVNPDQVEKIRKLPNTLL, the protein stability index is 2.1.

Take VCCCEGGVNPDQVEKIRKLPNTLL: the protein stability index worked out at 2.87.

For VCCCELGVNPDQVEKIRKLPNTLV, the protein stability index came to 1.96.

Turning to VCCCELGVNPDQVEKIRKLPNTHL, the protein stability index stood at 2.67.

VCCCELGVNPDQVEKIRKLPNTKL: the protein stability index was found to be 2.36.

Regarding VCCCELGVNPDQVEPIRKLPNTLL, the protein stability index was determined as 2.07.

As for VCCIELGVNPDQVEKIRKLPNTLL, the protein stability index is 2.28.

In the case of VCCCELGVNPDQVEKFRKLPNTLL, the protein stability index came to 1.69.

Regarding VCCCELGVNPDQVEKKRKLPNTLL, the protein stability index amounted to 2.53.

With VCCCELGVNPDQVEKISKLPNTLL, the protein stability index turned out to be 1.94.

For VCCCELGVCPDQVEKIRKLPNTLL, the protein stability index is 1.66.

On to VCCCELGVHPDQVEKIRKLPNTLL, for which the protein stability index turned out to be 1.83.

With VCCCELGVNPDQVEKIRQLPNTLL, the protein stability index is 1.54.

For the variant VCCCELGVNPDQVEKIRKMPNTLL, the protein stability index was 2.1.

Consider VCCCELGVNPDQVEKIRKAPNTLL, for which the protein stability index was found to be 2.12.

As to VCCCELGVNPDQVEKIRKWPNTLL, the protein stability index came to 2.73.

With VCCCELGVNHDQVEKIRKLPNTLL, the protein stability index stood at 2.

For the variant VCCCELGVNWDQVEKIRKLPNTLL, the protein stability index was 1.88.

With VCCCELGVNPDQEEKIRKLPNTLL, the protein stability index amounted to 2.78.

VCCCELGVNPDQKEKIRKLPNTLL: the protein stability index came to 2.25.

Regarding VCCCELGVNPDQMEKIRKLPNTLL, the protein stability index turned out to be 1.67.

With VCCCSLGVNPDQVEKIRKLPNTLL, the protein stability index worked out at 2.81.

On to VCCCFLGVNPDQVEKIRKLPNTLL, for which the protein stability index turned out to be 3.32.

Regarding VCCCVLGVNPDQVEKIRKLPNTLL, the protein stability index worked out at 1.18.

In a further data set the parent is B2. Described as above. The settings on record: c terminus: a fixed tail appended.
On to RMVPALPPKRMNGADREFIEARRR, for which the protein stability index came out at 4.89.

Turning to RMVPALPPKRMDGADREFIEARRR, the protein stability index was found to be 4.54.

On to RMVPALPPKRMTGADREFIEARRR, for which the protein stability index worked out at 4.43.

Take RMVPALPRKRMLGADREFIEARRR: the protein stability index turned out to be 3.88.

As to RMVPALPPKRMLGADREFIGARRR, the protein stability index came out at 4.02.

For the variant RMVPALPPKRMLGADREFIRARRR, the protein stability index came to 4.28.

Regarding RMVPALPPKRMLWADREFIEARRR, the protein stability index was 2.17.

For the variant RMVPALPPKRMLCADREFIEARRR, the protein stability index was determined as 2.17.

Consider RMVPALPPKRMLFADREFIEARRR, for which the protein stability index was determined as 2.22.

Turning to RMVPALPPTRMLGADREFIEARRR, the protein stability index is 3.64.

As for RMVPALCPKRMLGADREFIEARRR, the protein stability index came out at 2.91.

Consider RMVPALGPKRMLGADREFIEARRR, for which the protein stability index was found to be 4.01.

On to RMVPALDPKRMLGADREFIEARRR, for which the protein stability index came to 3.87.

Consider RMVPALSPKRMLGADREFIEARRR, for which the protein stability index is 4.08.

As for RMVPALHPKRMLGADREFIEARRR, the protein stability index came to 3.75.

On to RMAPALPPKRMLGADREFIEARRR, for which the protein stability index was found to be 3.31.

Regarding RMCPALPPKRMLGADREFIEARRR, the protein stability index is 3.5.

For the variant RMHPALPPKRMLGADREFIEARRR, the protein stability index came to 3.54.

Consider RMMPALPPKRMLGADREFIEARRR, for which the protein stability index came to 1.29.

RMVPALPPKRMLGADREFHEARRR: the protein stability index came out at 3.35.

RMVPALPPKRMLGADREFFEARRR: the protein stability index amounted to 3.61.

Consider RMVPALPPKRMLGADREGIEARRR, for which the protein stability index was 4.57.

Take RMVPALPPKRMLGADREPIEARRR: the protein stability index amounted to 4.64.

As to RMVPALPPKRMLGADREEIEARRR, the protein stability index was found to be 4.43.

As for RMVPALPPKRMLGADREFIEAMRR, the protein stability index amounted to 3.16.

In the case of RMVPALPPKRMLGADREFIEAPRR, the protein stability index is 3.79.

As to RMVPALPPKRMLGADREFIEAYRR, the protein stability index came out at 3.43.

As for RMVPALPPKRMLGADRNFIEARRR, the protein stability index was 4.

For the variant RMVPALPPKRMLGADRYFIEARRR, the protein stability index came out at 3.21.

For WMVPALPPKRMLGADREFIEARRR, the protein stability index worked out at 1.94.

Take LMVPALPPKRMLGADREFIEARRR: the protein stability index came out at 1.96.

As to HMVPALPPKRMLGADREFIEARRR, the protein stability index is 2.3.

Turning to IMVPALPPKRMLGADREFIEARRR, the protein stability index came out at 3.21.

As for RMVTALPPKRMLGADREFIEARRR, the protein stability index worked out at 3.34.

Consider RMVCALPPKRMLGADREFIEARRR, for which the protein stability index stood at 3.62.

For RMVSALPPKRMLGADREFIEARRR, the protein stability index is 3.69.

As for RMVPALPPKHMLGADREFIEARRR, the protein stability index stood at 4.21.

Regarding RMVPALPPKIMLGADREFIEARRR, the protein stability index was 3.94.

Take RMVPALPPKVMLGADREFIEARRR: the protein stability index worked out at 4.04.

Take RMVPGLPPKRMLGADREFIEARRR: the protein stability index was 3.84.

Consider RMVPALPPKRMLGADREFIESRRR, for which the protein stability index came out at 3.12.

Take RMVPALPPKRMLGADREFIEARRS: the protein stability index was 3.46.

Regarding RMVPALPPKRMLGADREFIEARRA, the protein stability index came out at 4.

For RMVPALPPKRMLGADCEFIEARRR, the protein stability index was 3.53.

With RMVPADPPKRMLGADREFIEARRR, the protein stability index was found to be 4.44.

In the case of RMVPAKPPKRMLGADREFIEARRR, the protein stability index was found to be 3.73.

As for RMVPAWPPKRMLGADREFIEARRR, the protein stability index was determined as 3.15.

For the variant RMVPAVPPKRMLGADREFIEARRR, the protein stability index turned out to be 3.97.

Take RMVPALPPKRTLGADREFIEARRR: the protein stability index is 4.27.

Consider RMVPALPPKRMLGCDREFIEARRR, for which the protein stability index is 3.52.

Turning to RMVPALPPKRMLGHDREFIEARRR, the protein stability index came out at 3.71.

Regarding RMVPALPPKRMLGADREFIEARTR, the protein stability index stood at 3.56.

Take RMVPALPPKRMLGADREFIEARQR: the protein stability index turned out to be 3.11.

For the variant RMVPALPPKRMLGADREFIEARSR, the protein stability index was 3.56.

For the variant RMVPALPPKRMLGADREFIEARWR, the protein stability index was found to be 1.28.

For RMVPALPPKRMLGASREFIEARRR, the protein stability index worked out at 3.77.

The values are drawn from the supplement of paper PMC10567573.
